Results reported in the Immune Epitope Database (IEDB).

What was measured:
HLA-B*15:02 = experiment: IEDB peptide-MHC binding, purified MHC/direct/fluorescence; filed as Kd, often an IC50 or EC50 that approximates it; ≥ and ≤ were set here for values at or beyond the usual limits of such assays; settings: source organism: dengue virus type 1
HLA-B*46:01 = experiment: as above; settings: source organism: Dengue virus
HLA-A*30:02 = experiment: IEDB peptide-MHC binding, purified MHC/competitive/radioactivity; filed as Kd, often an IC50 or EC50 that approximates it; ≥ and ≤ were set here for values at or beyond the usual limits of such assays; settings: source organism: Dengue virus 1 Brazil/97-11/1997
HLA-A*32:07 = experiment: IEDB peptide-MHC binding, purified MHC/competitive/fluorescence; filed as Kd, often an IC50 or EC50 that approximates it; ≥ and ≤ were set here for values at or beyond the usual limits of such assays; settings: source organism: Bacillus anthracis str. A0488
HLA-B*40:13 = experiment: as above; settings: source organism: Bacillus anthracis str. A0488
HLA-A*24:03 = experiment: as above; settings: source organism: Bacillus anthracis str. A0488
HLA-C*06:02 = experiment: as above; settings: source organism: Bacillus anthracis str. A0488
HLA-B*83:01 = experiment: as above; settings: source organism: Bacillus anthracis str. A0488
HLA-B*15:42 = experiment: as above; settings: source organism: Bacillus anthracis str. A0488
HLA-A*03:19 = experiment: as above; settings: source organism: Bacillus anthracis str. A0488
HLA-B*45:06 = experiment: as above; settings: source organism: Bacillus anthracis str. A0488
HLA-B*27:20 = experiment: as above; settings: source organism: Bacillus anthracis str. A0488
HLA-C*15:02 = experiment: IEDB peptide-MHC binding, purified MHC/direct/fluorescence; filed as Kd, often an IC50 or EC50 that approximates it; ≥ and ≤ were set here for values at or beyond the usual limits of such assays; settings: source organism: Bacillus anthracis str. A0488

Row | Sequence | Kd (HLA-B*15:02) [nM] | Kd (HLA-B*46:01) [nM] | Kd (HLA-A*30:02) [nM] | Kd (HLA-A*32:07) [nM] | Kd (HLA-B*40:13) [nM] | Kd (HLA-A*24:03) [nM] | Kd (HLA-C*06:02) [nM] | Kd (HLA-B*83:01) [nM] | Kd (HLA-B*15:42) [nM] | Kd (HLA-A*03:19) [nM] | Kd (HLA-B*45:06) [nM] | Kd (HLA-B*27:20) [nM] | Kd (HLA-C*15:02) [nM]
1 | KLEGKIVQY | ≥ 20000 | ≥ 20000 | 833 |  |  |  |  |  |  |  |  |  | 
2 | RFFKHFMSL |  |  |  | 0.4 | 5.2 | ≤ 0.1 | 1190 | ≥ 5000 | ≥ 5000 | 46.1 | ≥ 5000 | 16.1 | 1570
